Data: paper PMC3326303
Read-outs that look alike come from different tables or passages of the source.

Key:
[1] = target: Msi1 RBD2 (Mus musculus, UniProt Q61474 109-191); experiment: NMR HSQC titration
[2] = target: T1, Msi1 RBD1 (Mus musculus, UniProt Q61474 20-103); experiment: NMR HSQC titration
[3] = target: T1, Msi1 RBD1; experiment: NMR HSQC titration; remark: listed apart in the source
[4] = target: Msi1 RBD1-2 (Mus musculus, UniProt Q61474 20-191); experiment: NMR HSQC titration
[5] = target: T1, Msi1 RBD1; experiment: competition

T1 sequence (Q61474 20-103): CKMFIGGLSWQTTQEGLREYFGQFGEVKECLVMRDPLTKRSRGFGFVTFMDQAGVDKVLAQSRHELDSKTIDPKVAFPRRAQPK
Sequence of Msi1 RBD2 (Q61474 109-191): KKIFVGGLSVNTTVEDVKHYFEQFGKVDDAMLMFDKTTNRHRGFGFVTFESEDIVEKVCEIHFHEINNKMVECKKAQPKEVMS
Sequence of Msi1 RBD1-2 (Q61474 20-191): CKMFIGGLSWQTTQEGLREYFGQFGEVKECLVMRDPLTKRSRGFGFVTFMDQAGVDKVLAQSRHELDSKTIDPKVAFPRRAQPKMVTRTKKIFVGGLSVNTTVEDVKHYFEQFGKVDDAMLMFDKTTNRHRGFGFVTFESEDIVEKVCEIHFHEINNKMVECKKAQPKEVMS

UAGGUA (ssRNA) [numb6-1]: binds [1].

GGUAGU (ssRNA) [numb6-2]: binds [2]; binds [1].

GUAGU (ssRNA) [numb5]: binds [3].

UAGGUAGUAGUUUUA (ssRNA) [numb15]: binds [4].

With GUAGUU (ssRNA) [numb6-4] the binding signal [5] was ~1 ratio of complex signal to numb6-2 complex.
